Measurements published in patent US20160333096A1 (published 2016).

T1: canine PD-1 antigen (canine)
T1 construct: also called cPD-1; canine Programmed Death Receptor 1
T1 chain: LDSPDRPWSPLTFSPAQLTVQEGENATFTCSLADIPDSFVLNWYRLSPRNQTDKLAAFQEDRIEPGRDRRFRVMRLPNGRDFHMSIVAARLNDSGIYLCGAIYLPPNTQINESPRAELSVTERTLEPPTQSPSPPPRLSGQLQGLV


Experiments:
canine PD-1 antigen [1] = biological target: T1, canine PD-1 antigen; assay: SPR (Biacore T200), canine PD-1 amine-coupled to chip, antibody as analyte, 1:1 fit
From the text: (§1) Approximately 70 resonance units (RU) of the canine PD-1 antigen was immobilized directly by amine coupling. Affinity measurements were made via label-free surface plasmon resonance based technology (e.g., Biacore® T200) with an association time of 300 seconds, a dissociation time of 1200 seconds, and at concentrations of 50, 100, 200 (×2) 400, and 800 nanomolar (nM). A fitting model of 1:1 binding was used. […] Moreover, the mouse anti-canine PD-1 monoclonal antibody and the corresponding caninized mouse anti-canine PD-1 monoclonal antibody from the same clone yielded strikingly similar Kd values (see Table 5 below).

canine PD-1 antigen [2] = biological target: T1, canine PD-1 antigen; assay: SPR (Biacore T200), canine PD-1 amine-coupled to chip, antibody as analyte, 1:1 fit; off-rate below detection limit
From the text: as §1

| kon (canine PD-1 antigen [1]) [M⁻¹ s⁻¹] | Kd (canine PD-1 antigen [2]) [nM] | koff (canine PD-1 antigen [2]) [s⁻¹] | Kd (canine PD-1 antigen [1]) [nM] | koff (canine PD-1 antigen [1]) [s⁻¹] | Binder |
| --- | --- | --- | --- | --- | --- |
| 23000 | ≤ 0.2 | ≤ 5e-06 | – | – | Murine 2H9 (antibody, V domains shown, also called mAb 2H9) VH: EVQLQQSVAELVRPGASVKLSCTASGFNIKNTYMHWIKQRPEQGLEWIGRIAPANVDTKYAPKFQGKATITADTSSNTAYMQLSTLTSEDTAIYYCVLIYYDYDGDIDVWGTGTTVTVSS VL: DIQMNQSPSSLSASLGDTITITCHASQNINVWLSWYQQRPGNIPKLLIYKASHLHTGVPSRFSGSGSGTGFTLTISSLQPEDIATYYCQQGQSWPLTFGAGTKLELK |
| 18000 | – | – | 2 | 3.4e-05 | Murine 3B6 (antibody, V domains shown, Mouse monoclonal IgG from hybridoma; also called mAb 3B6) VH: QIQLVQSGPELKKPGETVKISCKASGYTFTTYGMSWVKQAPGKGLKWMGWINIYSGIPTYADDFKGRFAFSLETSASTAYLQIDNLKNEDTATYFCARFDGPDYWGQGTTLTVSS VL: DIVMTQSPSSLAVSVGRKVTMSCKSSQSLLNSVNQKNYLAWYQQKPGQSPKVLVYFASARVSGVPDRFIGSGSGTDFTLAISSVQAEDLTTYFCQQYFSTPLTFGAGTKLELK |
